Test results published in publication PMC2137744.

Target: H chains of human 7S γ-globulin reduced without alkylation (human)
Test: co-sedimentation

yield of doubly labeled 7S material: 30 per cent
Substance: L chains of human 7S γ-globulin reduced without alkylation (natural protein)
